In the assay the target is GST/BRCA1-1293–1863 (human, UniProt P38398 1293-1863). As to the kind of experiment: pull-down.
Sequence of GST/BRCA1-1293–1863 (P38398 1293-1863): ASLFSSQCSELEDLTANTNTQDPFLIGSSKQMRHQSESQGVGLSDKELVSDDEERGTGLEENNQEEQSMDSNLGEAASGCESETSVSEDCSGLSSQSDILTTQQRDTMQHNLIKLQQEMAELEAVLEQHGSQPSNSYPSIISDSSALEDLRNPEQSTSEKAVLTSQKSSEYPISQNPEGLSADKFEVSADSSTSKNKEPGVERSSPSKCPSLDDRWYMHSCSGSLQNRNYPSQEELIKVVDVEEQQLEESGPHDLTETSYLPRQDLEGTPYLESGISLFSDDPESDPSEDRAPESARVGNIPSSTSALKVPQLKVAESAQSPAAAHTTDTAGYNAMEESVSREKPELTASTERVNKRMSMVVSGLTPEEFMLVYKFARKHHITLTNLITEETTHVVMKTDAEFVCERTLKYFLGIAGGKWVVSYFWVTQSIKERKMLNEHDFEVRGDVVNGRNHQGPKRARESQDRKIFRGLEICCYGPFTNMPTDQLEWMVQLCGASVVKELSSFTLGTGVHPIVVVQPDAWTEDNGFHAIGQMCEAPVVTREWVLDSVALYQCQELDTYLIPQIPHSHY

B1: MBP/PALB2-1–70 (domain or fragment, human, UniProt Q86YC2 1-70, looked up)
chain: MDEPPGKPLSCEEKEKLKEKLAFLKREYSKTLARLQRAQRAEKIKHSIKKTVEEQDCLSQQDLSPQLKHS
Regarding B1, the binding result was “binds”.

The values above are taken from PMC4928587 (Molecular cancer research : MCR, 2009).
